target: T1, full-length human Tau (Tau441; 2N4R), recombinant (human, UniProt P10636 1-758); assay: SPR Biacore
T1 construct: made in E. coli, His6-Smt3 tag removed; biotinylated through amines for Octet and phage work; also called r-Tau; recombinant Tau
T1 sequence (P10636 other isoform, or with tags, fused parts or gaps limits assumed): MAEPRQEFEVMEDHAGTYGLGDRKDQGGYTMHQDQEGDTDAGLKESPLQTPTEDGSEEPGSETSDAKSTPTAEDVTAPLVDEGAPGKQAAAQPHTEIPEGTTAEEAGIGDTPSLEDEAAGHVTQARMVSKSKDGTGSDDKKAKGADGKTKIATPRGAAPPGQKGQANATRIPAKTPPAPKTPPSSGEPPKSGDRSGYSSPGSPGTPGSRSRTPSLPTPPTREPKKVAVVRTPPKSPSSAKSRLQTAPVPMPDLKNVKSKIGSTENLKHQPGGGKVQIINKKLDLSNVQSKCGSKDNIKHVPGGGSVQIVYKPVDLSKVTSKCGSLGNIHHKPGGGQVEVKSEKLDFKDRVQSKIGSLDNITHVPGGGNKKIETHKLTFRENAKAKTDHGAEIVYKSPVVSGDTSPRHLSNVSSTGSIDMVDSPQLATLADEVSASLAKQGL

Kd [nM] | koff [s⁻¹] | kon [M⁻¹ s⁻¹] | Binder
0.122 | 0.000252 | 2.07e+06 | Clone with H1_1 (antibody, V domains shown) VH: EVQLLESGGGLVQPGGSLRLSCAASGFKFSRVGVSWVRQAPGKGLEWVASISGDGGSYIHYADSVKGRFTISRDNSKNTLYLQMNSLRAEDTAVYYCARLPYWGQGTLVTVSS VL: DIVMTQSPDSLAVSLGERATINCKSSQSLLNSGNQKNYLTWYQQKPGQPPKLLIYWASTRESGVPDRFSGSGSGTDFTLTISSLQAEDVAVYYCQQYNSYPLTFGQGTKVEIKR
0.183 | 0.000244 | 1.34e+06 | Clone with H1_5 (antibody, V domains shown) VH: EVQLLESGGGLVQPGGSLRLSCAASVIKWRIYGMSWVRQAPGKGLEWVASISGDGGSYIHYADSVKGRFTISRDNSKNTLYLQMNSLRAEDTAVYYCARLPYWGQGTLVTVSS VL: DIVMTQSPDSLAVSLGERATINCKSSQSLLNSGNQKNYLTWYQQKPGQPPKLLIYWASTRESGVPDRFSGSGSGTDFTLTISSLQAEDVAVYYCQQYNSYPLTFGQGTKVEIKR
0.242 | 0.000478 | 1.97e+06 | Clone with H3_1 (antibody, V domains shown) VH: EVQLLESGGGLVQPGGSLRLSCAASGFTFSSYGMSWVRQAPGKGLEWVASISGDGGSYIHYADSVKGRFTISRDNSKNTLYLQMNSLRAEDTAVYYCAKLPFWGQGTLVTVSS VL: DIVMTQSPDSLAVSLGERATINCKSSQSLLNSGNQKNYLTWYQQKPGQPPKLLIYWASTRESGVPDRFSGSGSGTDFTLTISSLQAEDVAVYYCQQYNSYPLTFGQGTKVEIKR

target: T1, full-length human Tau (Tau441; 2N4R), …; assay: SPR Biacore; remark: another data set of the same source
Protocol: IgG was purified with protein A affinity chromatography. The affinity of each hulC7 IgG variant for r-Tau was determined by surface plasmon resonance using a Biacore™ T200 instrument. Biacore™ Series S CM5 sensor chips were immobilized with monoclonal mouse anti-human IgG (Fc) antibody (Human antibody capture kit from GE Healthcare). Serial 3-fold dilutions of each hulC7 variant were injected at a flow rate of […]. Each sample was analyzed with 3-minute association and 10-minute dissociation. After each injection, the chip was regenerated using 3 M MgCl₂. Binding response was corrected by subtracting the RU from a flow cell capturing an irrelevant IgG at similar density. A 1:1 Languir model of simultaneous fitting of kₒₙ and koff was used for kinetics analysis.
A further round of affinity maturation was performed by mutating certain amino acids in selected CDR-H1, CDR-L1, and CDR-L3 sequences from Table 9A, as well as the sequence of CDR-H2 (SEQ ID NO:23) of hulC7.v2. Sequence changes were identified in each CDR (Table 9B). Binding affinities were evaluated using Biacore™ (Table 10B).

Kd [nM] | koff [s⁻¹] | kon [M⁻¹ s⁻¹] | Binder
0.078 | 0.000214 | 2.72e+06 | Clone with L1_3-3 (antibody, V domains shown, based on hu1C7.v2) VH: EVQLLESGGGLVQPGGSLRLSCAASGFTFSSYGMSWVRQAPGKGLEWVASISGDGGSYIHYADSVKGRFTISRDNSKNTLYLQMNSLRAEDTAVYYCARLPYWGQGTLVTVSS VL: DIVMTQSPDSLAVSLGERATINCKSSQSLHYSGTQKDYLVWYQQKPGQPPKLLIYWASTRESGVPDRFSGSGSGTDFTLTISSLQAEDVAVYYCQQYNSYPLTFGQGTKVEIK
0.136 | 0.000154 | 1.13e+06 | Clone with L1_3-9 (antibody, V domains shown, based on hu1C7.v2) VH: EVQLLESGGGLVQPGGSLRLSCAASGFTFSSYGMSWVRQAPGKGLEWVASISGDGGSYIHYADSVKGRFTISRDNSKNTLYLQMNSLRAEDTAVYYCARLPYWGQGTLVTVSS VL: DIVMTQSPDSLAVSLGERATINCKSSQSLHRSGNQKDYLVWYQQKPGQPPKLLIYWASTRESGVPDRFSGSGSGTDFTLTISSLQAEDVAVYYCQQYNSYPLTFGQGTKVEIK
0.349 | 0.000379 | 1.09e+06 | Clone with L1_3-6 (antibody, V domains shown, based on hu1C7.v2) VH: EVQLLESGGGLVQPGGSLRLSCAASGFTFSSYGMSWVRQAPGKGLEWVASISGDGGSYIHYADSVKGRFTISRDNSKNTLYLQMNSLRAEDTAVYYCARLPYWGQGTLVTVSS VL: DIVMTQSPDSLAVSLGERATINCKSSQSLHQSGTQKDYLVWYQQKPGQPPKLLIYWASTRESGVPDRFSGSGSGTDFTLTISSLQAEDVAVYYCQQYNSYPLTFGQGTKVEIK
0.206 | 0.00031 | 1.5e+06 | Clone with L1_3-4 (antibody, V domains shown, based on hu1C7.v2) VH: EVQLLESGGGLVQPGGSLRLSCAASGFTFSSYGMSWVRQAPGKGLEWVASISGDGGSYIHYADSVKGRFTISRDNSKNTLYLQMNSLRAEDTAVYYCARLPYWGQGTLVTVSS VL: DIVMTQSPDSLAVSLGERATINCKSSQSLHNSGTQKDYLVWYQQKPGQPPKLLIYWASTRESGVPDRFSGSGSGTDFTLTISSLQAEDVAVYYCQQYNSYPLTFGQGTKVEIK
0.928 | 0.000787 | 848000 | Clone with L3_5 (antibody, V domains shown, based on hu1C7.v2) VH: EVQLLESGGGLVQPGGSLRLSCAASGFTFSSYGMSWVRQAPGKGLEWVASISGDGGSYIHYADSVKGRFTISRDNSKNTLYLQMNSLRAEDTAVYYCARLPYWGQGTLVTVSS VL: not shown
0.69 | 0.00057 | 826000 | Clone with L3_6 (antibody, V domains shown, based on hu1C7.v2) VH: EVQLLESGGGLVQPGGSLRLSCAASGFTFSSYGMSWVRQAPGKGLEWVASISGDGGSYIHYADSVKGRFTISRDNSKNTLYLQMNSLRAEDTAVYYCARLPYWGQGTLVTVSS VL: DIVMTQSPDSLAVSLGERATINCKSSQSLLNSGNQKNYLTWYQQKPGQPPKLLIYWASTRESGVPDRFSGSGSGTDFTLTISSLQAEDVAVYYCQQYSSYPLTFGQGTKVEIKR
0.119 | 0.000116 | 982000 | Clone with L1_3, L3, and H1_HCv2 (antibody, V domains shown) VH: EVQLLESGGGLVQPGGSLRLSCAASGFTFSQVGMSWVRQAPGKGLEWVASISGDGGSYIHYADSVKGRFTISRDNSKNTLYLQMNSLRAEDTAVYYCARLPYWGQGTLVTVSS VL: DIVMTQSPDSLAVSLGERATINCKSSQSLHRSGTQKDYLVWYQQKPGQPPKLLIYWASTRESGVPDRFSGSGSGTDFTLTISSLQAEDVAVYYCQQYNSYPLTFGQGTKVEIK
0.211 | 0.000213 | 1.01e+06 | Clone with L1_3-1 (antibody, V domains shown, based on hu1C7.v2) VH: EVQLLESGGGLVQPGGSLRLSCAASGFTFSSYGMSWVRQAPGKGLEWVASISGDGGSYIHYADSVKGRFTISRDNSKNTLYLQMNSLRAEDTAVYYCARLPYWGQGTLVTVSS VL: DIVMTQSPDSLAVSLGERATINCKSSQSLVRSGTQKDYLVWYQQKPGQPPKLLIYWASTRESGVPDRFSGSGSGTDFTLTISSLQAEDVAVYYCQQYNSYPLTFGQGTKVEIK
0.157 | 0.000147 | 937000 | Clone with L1_3-10 (antibody, V domains shown, based on hu1C7.v2) VH: EVQLLESGGGLVQPGGSLRLSCAASGFTFSSYGMSWVRQAPGKGLEWVASISGDGGSYIHYADSVKGRFTISRDNSKNTLYLQMNSLRAEDTAVYYCARLPYWGQGTLVTVSS VL: DIVMTQSPDSLAVSLGERATINCKSSQSLHRSGTQKNYLVWYQQKPGQPPKLLIYWASTRESGVPDRFSGSGSGTDFTLTISSLQAEDVAVYYCQQYNSYPLTFGQGTKVEIK
0.51 | 0.000391 | 767000 | Clone with L1_3-8 (antibody, V domains shown, based on hu1C7.v2) VH: EVQLLESGGGLVQPGGSLRLSCAASGFTFSSYGMSWVRQAPGKGLEWVASISGDGGSYIHYADSVKGRFTISRDNSKNTLYLQMNSLRAEDTAVYYCARLPYWGQGTLVTVSS VL: DIVMTQSPDSLAVSLGERATINCKSSQSLHLSGTQKDYLVWYQQKPGQPPKLLIYWASTRESGVPDRFSGSGSGTDFTLTISSLQAEDVAVYYCQQYNSYPLTFGQGTKVEIK
0.651 | 0.000719 | 1.1e+06 | Clone with L1_7 (antibody, V domains shown, based on hu1C7.v2) VH: EVQLLESGGGLVQPGGSLRLSCAASGFTFSSYGMSWVRQAPGKGLEWVASISGDGGSYIHYADSVKGRFTISRDNSKNTLYLQMNSLRAEDTAVYYCARLPYWGQGTLVTVSS VL: DIVMTQSPDSLAVSLGERATINCKSSQSLLNAGNQKNYLTWYQQKPGQPPKLLIYWASTRESGVPDRFSGSGSGTDFTLTISSLQAEDVAVYYCQQYNSYPLTFGQGTKVEIKR
1.19 | 0.000817 | 685000 | Clone with L3_7 (antibody, V domains shown, based on hu1C7.v2) VH: EVQLLESGGGLVQPGGSLRLSCAASGFTFSSYGMSWVRQAPGKGLEWVASISGDGGSYIHYADSVKGRFTISRDNSKNTLYLQMNSLRAEDTAVYYCARLPYWGQGTLVTVSS VL: DIVMTQSPDSLAVSLGERATINCKSSQSLLNSGNQKNYLTWYQQKPGQPPKLLIYWASTRESGVPDRFSGSGSGTDFTLTISSLQAEDVAVYYCQQYNAYPLTFGQGTKVEIKR
0.13 | 0.000143 | 1.1e+06 | Clone with L1_3-2 (antibody, V domains shown, based on hu1C7.v2) VH: EVQLLESGGGLVQPGGSLRLSCAASGFTFSSYGMSWVRQAPGKGLEWVASISGDGGSYIHYADSVKGRFTISRDNSKNTLYLQMNSLRAEDTAVYYCARLPYWGQGTLVTVSS VL: DIVMTQSPDSLAVSLGERATINCKSSQSLLRSGTQKDYLVWYQQKPGQPPKLLIYWASTRESGVPDRFSGSGSGTDFTLTISSLQAEDVAVYYCQQYNSYPLTFGQGTKVEIK
0.419 | 0.000442 | 1.05e+06 | Clone with L1_3-5 (antibody, V domains shown, based on hu1C7.v2) VH: EVQLLESGGGLVQPGGSLRLSCAASGFTFSSYGMSWVRQAPGKGLEWVASISGDGGSYIHYADSVKGRFTISRDNSKNTLYLQMNSLRAEDTAVYYCARLPYWGQGTLVTVSS VL: DIVMTQSPDSLAVSLGERATINCKSSQSLHMSGTQKDYLVWYQQKPGQPPKLLIYWASTRESGVPDRFSGSGSGTDFTLTISSLQAEDVAVYYCQQYNSYPLTFGQGTKVEIK
0.275 | 0.000308 | 1.12e+06 | Clone with L1_3-7 (antibody, V domains shown, based on hu1C7.v2) VH: EVQLLESGGGLVQPGGSLRLSCAASGFTFSSYGMSWVRQAPGKGLEWVASISGDGGSYIHYADSVKGRFTISRDNSKNTLYLQMNSLRAEDTAVYYCARLPYWGQGTLVTVSS VL: DIVMTQSPDSLAVSLGERATINCKSSQSLHKSGTQKDYLVWYQQKPGQPPKLLIYWASTRESGVPDRFSGSGSGTDFTLTISSLQAEDVAVYYCQQYNSYPLTFGQGTKVEIK
0.231 | 0.000223 | 965000 | Clone with L1_3-11 (antibody, V domains shown, based on hu1C7.v2) VH: EVQLLESGGGLVQPGGSLRLSCAASGFTFSSYGMSWVRQAPGKGLEWVASISGDGGSYIHYADSVKGRFTISRDNSKNTLYLQMNSLRAEDTAVYYCARLPYWGQGTLVTVSS VL: DIVMTQSPDSLAVSLGERATINCKSSQSLHRSGTQKDYLAWYQQKPGQPPKLLIYWASTRESGVPDRFSGSGSGTDFTLTISSLQAEDVAVYYCQQYNSYPLTFGQGTKVEIK

From patent US20200216522A1 (DENALI THERAPEUTICS, published 2020)
